Measurements as given in patent publication US20160311870A1 (SWEDISH ORPHAN BIOVITRUM AB PUBL, published 2016).

Target: T1, human complement component 5 (C5) (human, UniProt P01031 19-673; P01031 678-1676)
T1 construct: Bought human C5 (Quidel Cat #403 / A403); also called human C5; hC5
Assay: BLI (ForteBio), compound captured on HSA sensor, human C5 in solution
Protocol: Human serum albumin was immobilized to Amine Reactive 2nd generation (AR2G) Dip and Read Biosensors (Pall Life sciences (ForteBio) Cat #18-5092) by amine coupling. […] Regeneration conditions for the sensors were 10 mM Glycine, pH 2 (three pulses with 30 seconds and running buffer for 60 seconds). Each spectrogram was reference subtracted against an analogous construct containing an albumin binding domain (SEQ ID NO: 250) but without the C5 binding capacity. The data were analyzed according to Langmuir 1:1 model using ForteBio Analysis 7.1 (Pall Life sciences (ForteBio) kinetics software).

Rel. KD (KD relative to PSI0242): 2.1
B1: PSI0383 (designed binder)
chain: AEAKYAKEVLEAWDEIDRLPNLTIEQWLAFINKLDRQPEQSSELLSEAKKLSESQAPKVEGSLAEAKEAANAELDSYGVSDFYKRLIDKAKTVEGVEALKDAILAALP
notes: N52S, D53E, D60E and loop changes D36R, D37Q, S39E against PSI0242
